From the supplement of paper PMC11316812
± gives the standard deviation of the averaged measurements.

Tests used:
MCF7 = assay: percentage of EdU-negative (G0-arrested) nuclei per well, 72 h; higher = more G0 arrest; details: reference: sequence is the full UniProt precursor, the tested protein was the secreted form or ectodomain
hTERT-HMEC = assay: as above; details: reference: sequence is the full UniProt precursor, the tested protein was the secreted form or ectodomain
[1] = protein concentration 0.0225 µM
[2] = protein concentration 0.03125 µM
[3] = protein concentration 0.3125 µM
[4] = protein concentration 0.0257143 µM
[5] = protein concentration 0.257143 µM
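Also: secreted proteins added to cultured cells, EdU pulse at the end, nuclei found by Hoechst imaging, EdU status from nuclear versus surrounding ring intensity ratio, PBS as neutral control.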

Row | Sequence | percentage of EdU-negative (MCF7; [1]) | percentage of EdU-negative (MCF7; protein concentration 0.225 µM) | percentage of EdU-negative (hTERT-HMEC; [1]) | percentage of EdU-negative (hTERT-HMEC; protein concentration 0.225 µM) | percentage of EdU-negative (MCF7; [2]) | percentage of EdU-negative (MCF7; [3]) | percentage of EdU-negative (hTERT-HMEC; [2]) | percentage of EdU-negative (hTERT-HMEC; [3]) | also measured
1 | MLHLLALFLHCLPLASGDYDICKSWVTTDEGPTWEFYACQPKVMRLKDYVKVKVEPSGITCGDPPERFCSHENPYLCSNECDASNPDLAHPPRLMFDKEEEGLATYWQSITWSRYPSPLEANITLSWNKTVELTDDVVMTFEYGRPTVMVLEKSLDNGRTWQPYQFYAEDCMEAFGMSARRARDMSSSSAHRVLCTEEYSRWAGSKKEKHVRFEVRDRFAIFAGPDLRNMDNLYTRLESAKGLKEFFTLTDLRMRLLRPALGGTYVQRENLYKYFYAISNIEVIGRCKCNLHANLCSMREGSLQCECEHNTTGPDCGKCKKNFRTRSWRAGSYLPLPHGSPNACATAGSFGNCECYGHSNRCSYIDFLNVVTCVSCKHNTRGQHCQHCRLGYYRNGSAELDDENVCIECNCNQIGSVHDRCNETGFCECREGAAGPKCDDCLPTHYWRQGCYPNVCDDDQLLCQNGGTCLQNQRCACPRGYTGVRCEQPRCDPADDDGGLDCDRAPGAAPRPATLLGCLLLLGLAARLGR [Q96CW9] | 28.5 ± 0.47% | 28.61 ± 0.091% | 5.1 ± 0.37% | 5.79 ± 0.16% | – | – | – | – | –
2 | MFIKVMFGAGCSVLVNTSCRLVNLTAHLRQKAGLPPDATIALLAEDGNLVSLEEDLKEGASRAQTMGNSLLKERAIYVLVRIIKGEDMASTRYESLLENLDDHYPELAEELRRLSGLSSVGHNWRKRMGTRRGRHEQSPTSRPRKGPD [Q8WYQ4] | – | – | – | – | 28 ± 1.6% | 25.79 ± 0.035% | 5.45 ± 0.84% | 5.68 ± 0.37% | –
3 | MARARGSPCPPLPPGRMSWPHGALLFLWLFSPPLGAGGGGVAVTSAAGGGSPPATSCPVACSCSNQASRVICTRRDLAEVPASIPVNTRYLNLQENGIQVIRTDTFKHLRHLEILQLSKNLVRKIEVGAFNGLPSLNTLELFDNRLTTVPTQAFEYLSKLRELWLRNNPIESIPSYAFNRVPSLRRLDLGELKRLEYISEAAFEGLVNLRYLNLGMCNLKDIPNLTALVRLEELELSGNRLDLIRPGSFQGLTSLRKLWLMHAQVATIERNAFDDLKSLEELNLSHNNLMSLPHDLFTPLHRLERVHLNHNPWHCNCDVLWLSWWLKETVPSNTTCCARCHAPAGLKGRYIGELDQSHFTCYAPVIVEPPTDLNVTEGMAAELKCRTGTSMTSVNWLTPNGTLMTHGSYRVRISVLHDGTLNFTNVTVQDTGQYTCMVTNSAGNTTASATLNVSAVDPVAAGGTGSGGGGPGGSGGVGGGSGGYTYFTTVTVETLETQPGEEALQPRGTEKEPPGPTTDGVWGGGRPGDAAGPASSSTTAPAPRSSRPTEKAFTVPITDVTENALKDLDDVMKTTKIIIGCFVAITFMAAVMLVAFYKLRKQHQLHKHHGPTRTVEIINVEDELPAASAVSVAAAAAVASGGGVGGDSHLALPALERDHLNHHHYVAAAFKAHYSSNPSGGGCGGKGPPGLNSIHEPLLFKSGSKENVQETQI [Q9NT99] | – | – | – | – | 22.3 ± 1.6% | 26.4 ± 1.3% | 5.15 ± 0.48% | 6.95 ± 0.74% | –
4 | MMRCCRRRCCCRQPPHALRPLLLLPLVLLPPLAAAAAGPNRCDTIYQGFAECLIRLGDSMGRGGELETICRSWNDFHACASQVLSGCPEEAAAVWESLQQEARQAPRPNNLHTLCGAPVHVRERGTGSETNQETLRATAPALPMAPAPPLLAAALALAYLLRPLA [Q496H8] | 24.2 ± 1.7% | 23.3 ± 0.52% | 4.98 ± 0.36% | 5.04 ± 1.6% | – | – | – | – | –
5 | MHYCVLSAFLILHLVTVALSLSTCSTLDMDQFMRKRIEAIRGQILSKLKLTSPPEDYPEPEEVPPEVISIYNSTRDLLQEKASRRAAACERERSDEEYYAKEVYKIDMPPFFPSENAIPPTFYRPYFRIVRFDVSAMEKNASNLVKAEFRVFRLQNPKARVPEQRIELYQILKSKDLTSPTQRYIDSKVVKTRAEGEWLSFDVTDAVHEWLHHKDRNLGFKISLHCPCCTFVPSNNYIIPNKSEELEARFAGIDGTSTYTSGDQKTIKSTRKKNSGKTPHLLLMLLPSYRLESQQTNRRKKRALDAAYCFRNVQDNCCLRPLYIDFKRDLGWKWIHEPKGYNANFCAGACPYLWSSDTQHSRVLSLYNTINPEASASPCCVSQDLEPLTILYYIGKTPKIEQLSNMIVKSCKCS | – | – | – | – | 30.8 ± 2.4% | 40.6 ± 2.4% | 4.63 ± 1.4% | 15.8 ± 4.9% | –
6 | MAAERGARRLLSTPSFWLYCLLLLGRRAPGAAAARSGSAPQSPGASIRTFTPFYFLVEPVDTLSVRGSSVILNCSAYSEPSPKIEWKKDGTFLNLVSDDRRQLLPDGSLFISNVVHSKHNKPDEGYYQCVATVESLGTIISRTAKLIVAGLPRFTSQPEPSSVYAGNNAILNCEVNADLVPFVRWEQNRQPLLLDDRVIKLPSGMLVISNATEGDGGLYRCVVESGGPPKYSDEVELKVLPDPEVISDLVFLKQPSPLVRVIGQDVVLPCVASGLPTPTIKWMKNEEALDTESSERLVLLAGGSLEISDVTEDDAGTYFCIADNGNETIEAQAELTVQAQPEFLKQPTNIYAHESMDIVFECEVTGKPTPTVKWVKNGDMVIPSDYFKIVKEHNLQVLGLVKSDEGFYQCIAENDVGNAQAGAQLIILEHAPATTGPLPSAPRDVVASLVSTRFIKLTWRTPASDPHGDNLTYSVFYTKEGIARERVENTSHPGEMQVTIQNLMPATVYIFRVMAQNKHGSGESSAPLRVETQPEVQLPGPAPNLRAYAASPTSITVTWETPVSGNGEIQNYKLYYMEKGTDKEQDVDVSSHSYTINGLKKYTEYSFRVVAYNKHGPGVSTPDVAVRTLSDVPSAAPQNLSLEVRNSKSIMIHWQPPAPATQNGQITGYKIRYRKASRKSDVTETLVSGTQLSQLIEGLDRGTEYNFRVAALTINGTGPATDWLSAETFESDLDETRVPEVPSSLHVRPLVTSIVVSWTPPENQNIVVRGYAIGYGIGSPHAQTIKVDYKQRYYTIENLDPSSHYVITLKAFNNVGEGIPLYESAVTRPHTDTSEVDLFVINAPYTPVPDPTPMMPPVGVQASILSHDTIRITWADNSLPKHQKITDSRYYTVRWKTNIPANTKYKNANATTLSYLVTGLKPNTLYEFSVMVTKGRRSSTWSMTAHGTTFELVPTSPPKDVTVVSKEGKPKTIIVNWQPPSEANGKITGYIIYYSTDVNAEIHDWVIEPVVGNRLTHQIQELTLDTPYYFKIQARNSKGMGPMSEAVQFRTPKADSSDKMPNDQASGSGGKGSRLPDLGSDYKPPMSGSNSPHGSPTSPLDSNMLLVIIVSVGVITIVVVVIIAVFCTRRTTSHQKKKRAACKSVNGSHKYKGNSKDVKPPDLWIHHERLELKPIDKSPDPNPIMTDTPIPRNSQDITPVDNSMDSNIHQRRNSYRGHESEDSMSTLAGRRGMRPKMMMPFDSQPPQPVISAHPIHSLDNPHHHFHSSSLASPARSHLYHPGSPWPIGTSMSLSDRANSTESVRNTPSTDTMPASSSQTCCTDHQDPEGATSSSYLASSQEEDSGQSLPTAHVRPSHPLKSFAVPAIPPPGPPTYDPALPSTPLLSQQALNHHIHSVKTASIGTLGRSRPPMPVVVPSAPEVQETTRMLEDSESSYEPDELTKEMAHLEGLMKDLNAITTA | – | – | – | – | – | – | – | – | percentage of EdU-negative (MCF7; [4]): 24 ± 1.2%; percentage of EdU-negative (MCF7; [5]): 26.44 ± 0.25%; percentage of EdU-negative (hTERT-HMEC; [4]): 6.13 ± 1.3%; percentage of EdU-negative (hTERT-HMEC; [5]): 12.3 ± 1.7%
7 | MAEAKTHWLGAALSLIPLIFLISGAEAASFQRNQLLQKEPDLRLENVQKFPSPEMIRALEYIENLRQQAHKEESSPDYNPYQGVSVPLQQKENGDESHLPERDSLSEEDWMRIILEALRQAENEPQSAPKENKPYALNSEKNFPMDMSDDYETQQWPERKLKHMQFPPMYEENSRDNPFKRTNEIVEEQYTPQSLATLESVFQELGKLTGPNNQKRERMDEEQKLYTDDEDDIYKANNIAYEDVVGGEDWNPVEEKIESQTQEEVRDSKENIEKNEQINDEMKRSGQLGIQEEDLRKESKDQLSDDVSKVIAYLKRLVNAAGSGRLQNGQNGERATRLFEKPLDSQSIYQLIEISRNLQIPPEDLIEMLKTGEKPNGSVEPERELDLPVDLDDISEADLDHPDLFQNRMLSKSGYPKTPGRAGTEALPDGLSVEDILNLLGMESAANQKTSYFPNPYNQEKVLPRLPYGAGRSRSNQLPKAAWIPHVENRQMAYENLNDKDQELGEYLARMLVKYPEIINSNQVKRVPGQGSSEDDLQEEEQIEQAIKEHLNQGSSQETDKLAPVSKRFPVGPPKNDDTPNRQYWDEDLLMKVLEYLNQEKAEKGREHIAKRAMENM | – | – | – | – | – | – | – | – | percentage of EdU-negative (MCF7; protein concentration 0.006 µM): 26.9 ± 0.33%; percentage of EdU-negative (MCF7; protein concentration 0.06 µM): 27.1 ± 1.7%; percentage of EdU-negative (hTERT-HMEC; protein concentration 0.006 µM): 5.24 ± 0.54%; percentage of EdU-negative (hTERT-HMEC; protein concentration 0.06 µM): 5.44 ± 0.097%
8 | MAKSFPVFSLLSFILIHLVLSSVSGPRHWWPPRGIIKVKCPYEKVNLSWYNGTVNPCPGLYQPICGTNFITYDNPCILCVESLKSHGRIRFYHDGKC [Q6IE38] | 24 ± 0.13% | 27 ± 1.2% | 6.19 ± 0.33% | 6.12 ± 0.94% | – | – | – | – | –
